The chains are these.
B1: Eterna 6461246 (Same State NG 1) (ssRNA)
RNA: GUUUUCGCAUGAGGAUAUGCUCGCAUUUUAAGAGCAGAAGGUAUGUCUUUAGACAUGAGGAUCACCCAUGUAUUUAUCAUUGAA
B2: Eterna 6146814 (Same State NG 1) (ssRNA)
RNA: GGUGUCGCAUGAGGAUAUGGUCAGCUUUGCUGACCAGAAGGCAUGUCAAUAGACAUGAGGAUCACCCAUGUAGUAAAGACACCA
B3: Eterna 13277 (Sensor for hsa-mir-208a) (ssRNA)
RNA: AGUUGUGGGAAACUAUAGCAGACGCUCGUACAUGAGGAUCACCCAUGUCUUGUAGGAGCUGUUUGCUCGUUUUAUGG
B4: Eterna 6454073 (Inverted Small Loop Exclusion NG 3) (ssRNA)
RNA: CUGUGACGGUGCGCAAGUGGACGUAGAAGGGUCACAUGAGGAUCACCCAUGUGGGCCUGCUAGUGACAGGAUAUACGUUCGUGC
B5: Eterna 6387857 (Small Loop Same State NG 3) (ssRNA)
RNA: AAUCUUUUUAUGGGAUUACAAUAUGAGGAUAUCAUUCAUUUAUACAUGAGGAUCACCCAUGUUACUGAGAAGGCAUAUAUAAUA
B6: Eterna 6122145 (Exclusion NG 2) (ssRNA)
RNA: AAAUUUAACGAAGGAUAUGCUGACAUGAGGAUCACCCAUGUGUGCUUUGUGUUGCUGAAAUGGGAGCAGAAGGUCGUAUACAUA
B7: Eterna 6455078 (Same State NG 2) (ssRNA)
RNA: UGGUACUAGGGAGGAUAUGGGAAGAUACAUGAGGAUCACCCAUGUUUAAGAAUGCCGAGAGGGAACUAGAAGGCCCUAGUACCU
B8: Eterna 7740311 (Same State - Theophylline A) (ssRNA)
RNA: AAAAUAAGCCAGUGAUGUUGGUAUACAGAUACCAGCGACGAAAGUCGCCCUUGGCAGCUGUGGACGUACAAAAUAAGUACGUCCU
B9: Eterna 6069320 (Exclusion 4) (ssRNA)
RNA: GGGUUGUGAGGAUAUUAGUUGUACGUCAAUAGACGUAUGGGUGAGAAGGCACAUGAGGAUCACCCAUGUUCCUG
B10: Eterna 6455789 (Same State NG 2) (ssRNA)
RNA: UUGGACGUCGUAGGAUAUGUAGGAUAUUCCUACAUGAGGAUCACCCAUGUUGACAUGGAAGAAGGACAGAAGUACGAUGUCCAU
B11: Eterna 1618 (Same State - Theophylline A) (ssRNA)
RNA: GAUUGAGUGAUGUUCAAUUAGUAUCUAGAUACCAGAAUGUCUACCUUCCCUUGGCAGCUACUGACGGUGAUCAUUUCGCGCGCAG
B12: Eterna 7750603 (Exclusion - Arginine A) (ssRNA)
RNA: GGCCGCAAGGCGAGCGCUCCCACUCCGGAAGGAGCGCCCGUAAGGGCAGGUAGGUCGCCGGAGUGAUGUUCCGGUGGAGGGCUCG
B13: Eterna 7717543 (Exclusion - Theophylline B) (ssRNA)
RNA: CCAUUCAUUUACGAUACCAGUCUAAUAUAUUUAAUCAAAACCCUCGCCGAGUGAUGUUCGGACCCUUGGCAGCGUCUGCGACAGG
B14: Eterna 13730 (Sensor v3, turn-off variant 1) (ssRNA)
RNA: CCGAGGAAGCGGUCCUAUGACAUGAGGAUCACCCAUGUACCUCGCUACGAGCUUUUUGCUCGUCUUAUAAUUCUCGG
B15: Eterna 6093766 (Exclusion NG 2) (ssRNA)
RNA: UGUCGGAGCAGAGGAUAUAUACAUGAGGAUCACCCAUGUAAAUGAAUGAGCUGGAAACAGCAAGUAUAGAAGGCUGCUCCGACA
B16: Eterna 15090 (Exclusion 6) (ssRNA)
RNA: AAAUGGGCGUAGGAUAUGAGAUGGUCUAGCAGCUCAGAAGGACGCACAUGAGGAUCACCCAUGUGAUCGGACUA
B17: Eterna 7646225 (Same State - Tryptophan A) (ssRNA)
RNA: AAUAACAUGAGGAUCACCCAUGUAAGUAAACGAGGACCGGUACGGCCGCCACUCGAAUAAAUAAAGUACCGGUAAGAUCCAUAGA
B18: Eterna 6458058 (Inverted Same State NG 2) (ssRNA)
RNA: AAUGGGCAGCAGAAGGCAUGUCUACGGACAUGAGGAUCACCCAUGUAGUAAAGCCGAAAGGCGCAUGAGGAUAUGCUGCCCUAA
B19: Eterna 6075609 (Exclusion 3) (ssRNA)
RNA: CUGAGUUAAGGAUAUACAUGAGGAUCACCCAUGUAAAGUAGCUUGCGUACAGGCAGAUGUAGAAGGUAAUUCGG
B20: Eterna 6122649 (Exclusion NG 2) (ssRNA)
RNA: UUAUCUUGUCAAGGAUAUGUUGUAUUGAUCUGAAAACAUGAGGAUCACCCAUGUAUACGGUGGGAACAGAAGGUGAAUGUAGAA
B21: Eterna 5954774 (Same State NG 2) (ssRNA)
RNA: GUAGCAUACCGAGGAUAUUCAUAUAAUACAUGAGGAUCACCCAUGUUAUAUAGGCGAAAGCCUUGGGAGAAGGCGGAAUGCUAC
B22: Eterna 5958897 (Exclusion NG 2) (ssRNA)
RNA: AGCUGUGGCCGAGGAUAUCUAUCCCAAAUAACCGAAAUAUAAUCGGACAUGAGGAUCACCCAUGUAGAGAAGGCGGUCUCAGCA
B23: Eterna 6402815 (Same State NG 2) (ssRNA)
RNA: ACCUCGUACACAGGAUAUGAUUACUUGCAGCCUGCGUUGACAUGAGGAUCACCCAUGUGGACUGAUCAGAAGGGUGAACGGAAG
B24: Eterna 7689684 (Same State - Theophylline A) (ssRNA)
RNA: UGGAGUUGACGAAAAGUCAACUCCUGAGAUACCAGUGACGAAAGUCACCCUUGGCAGCUCACUGCCAGUGAUGUUGGAAAUAAAA
B25: Eterna 6437027 (Inverted Exclusion NG 3) (ssRNA)
RNA: AUACAUGAGGAUCACCCAUGUUACUGGGUCUAUAUAGAACGUAGAAGGAUGUUUAUACACAUAACAUAGGAUAUACAAUAUUGU
B26: Eterna 8603 (Same State 1) (ssRNA)
RNA: AUAAAACAUGAGGAUCACCCAUGUCAACAAAGUCGAGGAUAUGGGCAAAUAAAAUAAGAACCAGAAGGCGUAUAAU
B27: Eterna 7691982 (Same State - Arginine B) (ssRNA)
RNA: UGACUGGACUGAAGGAGCGAGCGAGACAAAGUCUCGAAAAUUCAGUGAUGUUGAAAUAUAACUCAGGUAGGUCGCAGUCUAGUCU
B28: Eterna 7755342 (Exclusion - FMN A) (ssRNA)
RNA: AAGUGUCAUUAGACACACCGAUGUAUAAACUAGGAUAUGCUGAUAAGCAGAAGGAGUGAUGUUCCUUUCAUCAUCGGAAUUAAAU
B29: Eterna 5989868 (Exclusion 3) (ssRNA)
RNA: GUAUCACGAGGAUAUACAUGAGGAUCACCCAUGUAGAAGCCAUGUGGUGCUCAAGUAUGUAGAAGGCGUGCUCC
B30: Eterna 6071251 (Exclusion 3) (ssRNA)
RNA: GCACUGACAGGAUAUACAUGAGGAUCACCCAUGUGACCCUUACAGUACUCGCGUACUGGUAGAAGGGUCUGUGC
B31: Eterna 6446347 (Same State NG 2) (ssRNA)
RNA: GGGUACAUCGGAGGAUAUCAUGUAAAUACAUGAGGAUCACCCAUGUCGGUGGAGACAUCGGAGAUUGAGAAGGCCGAUGUACCG
B32: Eterna 6382764 (Same State NG 3) (ssRNA)
RNA: GGACGUCACAUUAACAUGAGGAUCACCCAUGUGAAAACACAUGAGGAUAUGGAUCCUAAUUGGAUCCAGAAGGCAUGGACGUCC
B33: Eterna 6461493 (Inverted Same State NG 1) (ssRNA)
RNA: GUGCUUUGGGAGAAGGCCGUAUGCAAAGCAUACGGAGGAUAUUCAUACCGGAAACGGACAUGAGGAUCACCCAUGUGGCACAAA
B34: Eterna 6416899 (Inverted Same State NG 1) (ssRNA)
RNA: CACAAAUGGCAGAAGGGACGGACGAUAGUGUAGUCAGGAUAUGCAAAUAGGUAUGGACAUGAGGAUCACCCAUGUCCGUCCUUU
B35: Eterna 11543 (Sensor v3, turn-off variant 1) (ssRNA)
RNA: AAAGAAGAGAGAAAAUAACACAUGAGGAUCACCCAUGUGAGAAGUUGAGGGUGAUACAGGCUUUAUGCUCGUCUUAU
B36: Eterna 6045632 (Brourd's mod of Exclusion 4) (ssRNA)
RNA: CGGGCUGCUGUGAGGAUAUGCCUGUGGGUGCGUGGGUAGAAGGCACAUGAGGAUCACCCAUGUCCUGCAGCUCG
B37: Eterna 7744734 (Exclusion - Tryptophan A) (ssRNA)
RNA: CGUGAAUGUCGUCAGUCAUCGGUCCAUGCACGAGGACCGGUACGGCCGCCACUCGAGCGUGGCAGUGAUGUUGCCAGCGCACUAA
B38: Eterna 10695 (Exclusion 1) (ssRNA)
RNA: AAUUCACAUGAGGAUCACCCAUGUCAGGAUAUGGUGACGCGGGUUUCGGUGCGUGUUGCCAGAAGGGACGGCUG

The series deals with MS2 coat protein, dlFG mutant (Escherichia phage MS2, UniProt P03612, del68-81insG). Briefly: 4 mM Mg2+; no ligand; RNA-MaP array; 100 mM Tris-HCl pH 7.5, 80 mM KCl, 4 mM MgCl2, 0.1 mg/mL BSA, 1 mM DTT, 0.01 mg/mL yeast tRNA, 0.01% Tween-20; protein 1.5 nM to 3 uM; 37 C (Table S3). As to conditions: chain copies: 2; label: tethered by stalled RNA polymerase.
As to B1, the Kd was determined as 162 nM.
As to B2, binding was put at a Kd of 504 nM.
B3 showed a Kd of 63.8 nM.
In turn, B4 returned a Kd of 19.3 nM.
For B5, the Kd came out at 28.4 nM.
In the case of UUUCUUAUUCUUUAUUGUGGGGUUUU (ssRNA) [Eterna 4 (OligoAControl)] it was above 3000 nM.
On to B6, for which binding was characterised by a dissociation constant (Kd) of 118 nM.
As for B7, binding was characterised by a dissociation constant (Kd) of 255 nM.
In the case of B8 it was above 3000 nM; in that of B9, 107 nM; in that of B10, 127 nM.
As to B11, the Kd is above 3000 nM.
The molecule B12 gave a Kd above 3000 nM.
The molecule B13 showed a Kd above 3000 nM.
Consider B14, for which the Kd was 23.6 nM.
B15 registered a Kd of 14.9 nM.
For the molecule B16, the affinity, expressed as Kd, was 28.7 nM.
Consider B17, for which the affinity, expressed as Kd, was 21.3 nM.
For B18, the Kd turned out to be 121 nM.
Turning to B19, the Kd is 43 nM.
B20: the Kd turned out to be 808 nM.
B21 came in with a Kd of 16.3 nM.
As to UUUGCAGGGCAGUGAUGUUGCCCUGCUUU (ssRNA) [Eterna 8 (K4-8bp_control)], the Kd was above 3000 nM.
Consider B22, for which binding was put at a Kd of 28.4 nM.
In the case of B23 it was 571 nM; in that of B24, above 3000 nM; in that of B25, 33.3 nM.
Consider B26, for which the dissociation constant (Kd) was 530 nM.
B27 returned a Kd above 3000 nM.
In the case of B28 it was above 3000 nM; in that of B29, 36.1 nM.
Regarding B30, binding was characterised by a dissociation constant (Kd) of 35.4 nM.
B31 showed a Kd of 271 nM.
The value for B32 was 27.8 nM.
The value for B33 was 1200 nM; that for B34 was 15.2 nM; that for B35 was 203 nM.
For B36, the Kd is 1130 nM.
With B37, the Kd is above 3000 nM.
Consider B38, for which the affinity, expressed as Kd, was 133 nM.

These data come from paper PMC9170038, “Crowdsourced RNA design discovers diverse, reversible, efficient, self-contained molecular switches”.
